Measured values: publication PMC5025654

Assays:
[1] = biological target: TGF-β1 of the porcine enamel matrix (porcine (endogenous in porcine enamel)); assay: co-elution on RP-HPLC, TGF-β1 quantified by ALP-inducing activity of HPDL cells; amelogenins as purified from enamel (before the in vitro binding); ng of TGF-β1 per mg of amelogenin calculated from standard CF-hTGF-β1 (0.3 ng mL^-1), after dilution correction; complexes formed in vivo
[2] = biological target: carrier-free recombinant human TGF-β1 (human); assay: in vitro binding, RP-HPLC, TGF-β1 quantified by ALP-inducing activity of HPDL cells; purified amelogenin mixed with CF-hTGF-β1 or rh-latent TGF-β1, fractions from RP-HPLC tested in the ALP-HPDL system; ng per mg of amelogenin calculated from standard CF-hTGF-β1 (0.3 ng mL^-1), after dilution correction; details in the Supplementary Methods
[3] = biological target: TGF-β1 of the porcine enamel matrix (porcine (endogenous in porcine enamel))
[4] = biological target: TGF-β1 of the porcine enamel matrix (porcine (endogenous in porcine enamel)); assay: dynamic light scattering; multi-angle DLS, 25.0 °C, Tris; original (TGF-β1-bound) P103 amelogenin at c > 6.0 mg mL^-1 (Line 1), D extrapolated to D0; RH 3.21 nm, Mw from an empirical RH-Mw relation; complex formed in vivo
[5] = biological target: P103 amelogenin (porcine); assay: dynamic light scattering; multi-angle DLS, 25.0 °C, Tris; D extrapolated to zero concentration (D0), RH by Stokes-Einstein, Mw from an empirical RH-Mw relation; P103-1 and P103-2 amelogenins and original P103 amelogenin at c < 4.0 mg mL^-1; RH 2.57 nm
[6] = biological target: TGFBR1 of porcine enamel organ epithelia (porcine (endogenous in enamel organ epithelia)) (UniProt Q5CD18)
Chain of TGFBR1 of porcine enamel organ epithelia (porcine (endogenous in enamel organ epithelia)) (Q5CD18 30-503): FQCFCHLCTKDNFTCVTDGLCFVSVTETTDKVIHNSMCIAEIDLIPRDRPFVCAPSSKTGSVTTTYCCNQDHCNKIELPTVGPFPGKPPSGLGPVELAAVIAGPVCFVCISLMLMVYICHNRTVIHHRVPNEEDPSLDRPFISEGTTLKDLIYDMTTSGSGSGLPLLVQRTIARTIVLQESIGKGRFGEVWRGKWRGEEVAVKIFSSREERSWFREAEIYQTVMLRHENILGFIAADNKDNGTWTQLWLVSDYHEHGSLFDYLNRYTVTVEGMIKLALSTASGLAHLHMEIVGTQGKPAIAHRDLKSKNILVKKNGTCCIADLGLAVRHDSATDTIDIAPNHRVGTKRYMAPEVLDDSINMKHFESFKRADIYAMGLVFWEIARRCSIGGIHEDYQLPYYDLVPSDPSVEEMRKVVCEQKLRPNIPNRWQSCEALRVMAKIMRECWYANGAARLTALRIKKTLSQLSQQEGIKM

Chain of TGF-β1 of the porcine enamel matrix (porcine (endogenous in porcine enamel)) (P07200 30-390): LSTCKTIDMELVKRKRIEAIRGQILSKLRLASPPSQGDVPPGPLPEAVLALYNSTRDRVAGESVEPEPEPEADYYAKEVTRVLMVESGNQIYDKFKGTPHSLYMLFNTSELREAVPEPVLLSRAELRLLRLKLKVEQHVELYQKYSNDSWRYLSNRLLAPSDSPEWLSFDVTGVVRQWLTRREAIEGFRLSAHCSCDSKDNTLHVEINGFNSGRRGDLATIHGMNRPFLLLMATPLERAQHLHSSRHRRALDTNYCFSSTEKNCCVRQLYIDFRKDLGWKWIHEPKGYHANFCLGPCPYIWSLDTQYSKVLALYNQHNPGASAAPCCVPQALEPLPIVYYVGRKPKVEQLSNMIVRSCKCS
Chain of P103 amelogenin-TGF-β1 complex (P07200 whole entry, looked up, one chain of several): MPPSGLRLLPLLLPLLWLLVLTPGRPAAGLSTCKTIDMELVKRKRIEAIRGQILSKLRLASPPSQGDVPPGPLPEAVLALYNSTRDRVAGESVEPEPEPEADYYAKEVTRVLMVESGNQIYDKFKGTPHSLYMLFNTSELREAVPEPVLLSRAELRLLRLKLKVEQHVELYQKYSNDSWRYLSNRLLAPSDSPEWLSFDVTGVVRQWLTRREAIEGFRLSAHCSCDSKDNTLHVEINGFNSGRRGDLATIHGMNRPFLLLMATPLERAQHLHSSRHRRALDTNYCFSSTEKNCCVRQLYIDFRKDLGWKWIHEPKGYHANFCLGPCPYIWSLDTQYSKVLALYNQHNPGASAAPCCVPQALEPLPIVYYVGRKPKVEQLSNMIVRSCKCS

| original TGF-β1, ng against 1 mg of amelogenin [1] | bound TGF-β1, ng against 1 mg of amelogenin [2] | ALP-inducing activity of HPDL cells left after digestion of the P103 amelogenin-TGF-β1 complex with pKLK4 for 20 h, compared to the level before digestion (CF-hTGF-β1 alone: 8%) [3] | stoichiometry N (amelogenin trimer per TGF-β homodimer) [4] | stoichiometry N [5] | TR-FRET TGFBR1 kinase assay (phosphorylation of ULight-Topo IIα peptide, 5 mM ATP), FRET signal after 12 h with the complex added, against the control without addition (% higher than the control) [6] | Substance |
| --- | --- | --- | --- | --- | --- | --- |
| 0.263 ng | 1.06 ng |  |  |  |  | P148 amelogenin (domain or fragment) |
| 0.201 ng | 1.17 ng |  |  |  |  | P162 amelogenin (domain or fragment) |
| 0.797 ng | 1.08 ng | 70% | 1 | 3 |  | P103 amelogenin (domain or fragment) |
|  |  |  |  |  | 5 | P103 amelogenin-TGF-β1 complex (from UniProt P07200 279-390) |
